# Laboratory results: IntAct's records for PubMed 22580824
# B1: ADP-ribosylation factor 6 (Homo sapiens), P62330 (parent)
# chain: MGKVLSKIFGNKEMRILMLGLDAAGKTTILYKLKLGQSVTTIPTVGFNVETVTYKNVKFNVWDVGGQDKIRPLWRHYYTGTQGLIFVVDCADRDRIDEARQELHRIINDREMRDAIILIFANKQDLPDAMKPHEIQEKLGLTRIRDRNWYVQPSCATSGDGLYEGLTWLTSNYKS
# partner: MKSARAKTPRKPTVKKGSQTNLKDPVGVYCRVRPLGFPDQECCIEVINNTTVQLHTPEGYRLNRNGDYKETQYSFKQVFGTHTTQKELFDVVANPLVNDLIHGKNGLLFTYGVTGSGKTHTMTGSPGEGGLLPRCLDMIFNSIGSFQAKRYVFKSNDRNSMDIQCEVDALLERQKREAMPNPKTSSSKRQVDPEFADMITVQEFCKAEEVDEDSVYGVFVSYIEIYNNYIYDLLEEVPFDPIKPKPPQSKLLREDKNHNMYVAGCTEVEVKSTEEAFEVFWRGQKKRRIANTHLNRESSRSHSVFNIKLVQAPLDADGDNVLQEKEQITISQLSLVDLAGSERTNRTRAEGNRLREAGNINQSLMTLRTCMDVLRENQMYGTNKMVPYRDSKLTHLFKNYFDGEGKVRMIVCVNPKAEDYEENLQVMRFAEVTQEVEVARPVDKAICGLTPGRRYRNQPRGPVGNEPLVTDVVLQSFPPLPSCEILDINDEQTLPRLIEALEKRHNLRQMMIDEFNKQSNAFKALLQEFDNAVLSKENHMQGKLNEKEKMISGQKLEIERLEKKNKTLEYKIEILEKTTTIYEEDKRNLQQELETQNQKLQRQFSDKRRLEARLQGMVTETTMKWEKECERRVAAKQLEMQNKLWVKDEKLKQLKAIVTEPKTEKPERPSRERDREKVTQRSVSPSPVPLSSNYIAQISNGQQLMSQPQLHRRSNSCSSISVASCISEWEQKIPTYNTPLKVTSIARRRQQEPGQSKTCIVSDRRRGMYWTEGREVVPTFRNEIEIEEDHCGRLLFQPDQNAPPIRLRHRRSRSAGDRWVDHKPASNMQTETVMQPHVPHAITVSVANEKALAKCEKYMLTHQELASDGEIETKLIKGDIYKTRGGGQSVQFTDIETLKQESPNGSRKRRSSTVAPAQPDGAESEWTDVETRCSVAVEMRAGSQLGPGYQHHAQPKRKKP
# B2: Kinesin-like protein KIF23 (Homo sapiens), Q02241 (parent)
# chain: B1 partner
# B3: Kinesin-like protein KIF23 (Homo sapiens), Q02241 (parent)
# chain: B1 partner
# partner: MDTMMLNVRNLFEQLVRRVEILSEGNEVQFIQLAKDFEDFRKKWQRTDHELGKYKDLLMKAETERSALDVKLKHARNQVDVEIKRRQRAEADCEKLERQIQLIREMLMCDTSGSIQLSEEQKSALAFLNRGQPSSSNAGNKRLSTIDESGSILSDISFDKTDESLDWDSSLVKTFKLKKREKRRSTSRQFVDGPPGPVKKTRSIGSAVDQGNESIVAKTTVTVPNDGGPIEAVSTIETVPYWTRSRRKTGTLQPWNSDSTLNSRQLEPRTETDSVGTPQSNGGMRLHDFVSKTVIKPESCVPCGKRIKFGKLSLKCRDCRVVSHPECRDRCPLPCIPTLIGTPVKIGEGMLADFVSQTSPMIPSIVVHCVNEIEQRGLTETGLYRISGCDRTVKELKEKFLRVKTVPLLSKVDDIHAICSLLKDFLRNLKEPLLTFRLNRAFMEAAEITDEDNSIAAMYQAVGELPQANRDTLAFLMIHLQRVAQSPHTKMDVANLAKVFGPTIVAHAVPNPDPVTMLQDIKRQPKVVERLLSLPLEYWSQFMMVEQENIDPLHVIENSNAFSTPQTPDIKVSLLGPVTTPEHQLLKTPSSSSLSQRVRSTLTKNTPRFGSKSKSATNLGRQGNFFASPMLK
# Variants of: B1
# Settings: with kif23_human KIF23, Q02241
row,effect of a mutation on the interaction,Variant
1,disrupting interaction,T27N

# Variants of: B2
# Settings: with arf6_human ARF6, P62330
row,effect of a mutation on the interaction,Variant
1,disrupting interaction,E896A

# Variants of: B2
# Settings: with arf6_human ARF6, P62330
# Remark: another data set of the same source
row,effect of a mutation on the interaction,Variant
1,disrupting interaction,Y858A

# Variants of: B2
# Settings: with arf6_human ARF6, P62330
# Remark: another data set of the same source
row,effect of a mutation on the interaction,Variant
1,disrupting interaction,F892A

# Variants of: B2
# Settings: with arf6_human ARF6, P62330
# Remark: another data set of the same source
row,effect of a mutation on the interaction,Variant
1,disrupting interaction,E864A

# Variants of: B2
# Settings: with arf6_human ARF6, P62330
# Remark: another data set of the same source
row,effect of a mutation on the interaction,Variant
1,disrupting interaction,L860A

# Variants of: B2
# Settings: with arf6_human ARF6, P62330
# Remark: another data set of the same source
row,effect of a mutation on the interaction,Variant
1,decreasing interaction,L860A

# Variants of: B2
# Settings: with arf6_human ARF6, P62330
# Remark: another data set of the same source
row,effect of a mutation on the interaction,Variant
1,disrupting interaction,V890A

# Variants of: B2
# Settings: with arf6_human ARF6, P62330
# Remark: another data set of the same source
row,effect of a mutation on the interaction,Variant
1,decreasing interaction,V890A

# Variants of: B2
# Settings: with arf6_human ARF6, P62330
# Remark: another data set of the same source
row,effect of a mutation on the interaction,Variant
1,disrupting interaction,L794A

# Variants of: B2
# Settings: with arf6_human ARF6, P62330
# Remark: another data set of the same source
row,effect of a mutation on the interaction,Variant
1,disrupting interaction,T779A

# Variants of: B2
# Settings: with arf6_human ARF6, P62330
# Remark: another data set of the same source
row,effect of a mutation on the interaction,Variant
1,decreasing interaction,T779A

# Variants of: B2
# Settings: with arf6_human ARF6, P62330
# Remark: another data set of the same source
row,effect of a mutation on the interaction,Variant
1,disrupting interaction,K877A

# Variants of: B2
# Settings: with arf6_human ARF6, P62330
# Remark: another data set of the same source
row,effect of a mutation on the interaction,Variant
1,decreasing interaction,K877A

# Variants of: B2
# Settings: with arf6_human ARF6, P62330
# Remark: another data set of the same source
row,effect of a mutation on the interaction,Variant
1,disrupting interaction,Q863A

# Variants of: B2
# Settings: with arf6_human ARF6, P62330
# Remark: another data set of the same source
row,effect of a mutation on the interaction,Variant
1,decreasing interaction,Q863A

# Variants of: B2
# Settings: with arf6_human ARF6, P62330
# Remark: another data set of the same source
row,effect of a mutation on the interaction,Variant
1,disrupting interaction,T873A

# Variants of: B2
# Settings: with arf6_human ARF6, P62330
# Remark: another data set of the same source
row,effect of a mutation on the interaction,Variant
1,decreasing interaction,T873A

# Variants of: B3
# Settings: with rgap1_human RACGAP1, Q9H0H5
row,effect of a mutation on the interaction,Variant
1,increasing interaction,S814A

# Variants of: B3
# Settings: with rgap1_human RACGAP1, Q9H0H5
# Remark: another data set of the same source
row,effect of a mutation on the interaction,Variant
1,increasing interaction,V890A
